Data from the supplement of paper PMC11246515.
± gives the standard deviation of the averaged measurements.

Experiment: total protein half-life in vivo (active degradation + dilution); higher = more stable protein
[1] = E. coli NCM3722 delta-clpP delta-lon delta-hslV, growth: N-lim chemostat, doubling time 6 h
[2] = E. coli NCM3722 delta-clpP, growth: N-lim chemostat, doubling time 6 h
[3] = E. coli NCM3722 delta-lon, growth: N-lim chemostat, doubling time 6 h
[4] = E. coli NCM3722 delta-smpB, growth: N-lim chemostat, doubling time 6 h
[5] = wild type E. coli NCM3722, growth: C-lim chemostat, doubling time 3 h
[6] = wild type E. coli NCM3722, growth: C-lim chemostat, doubling time 6 h
[7] = wild type E. coli NCM3722, growth: C-lim chemostat, doubling time 12 h
[8] = wild type E. coli NCM3722, growth: N-lim chemostat, doubling time 6 h
[9] = wild type E. coli NCM3722, growth: N-lim chemostat, doubling time 12 h
[10] = wild type E. coli NCM3722, growth: P-lim chemostat, doubling time 6 h
[11] = wild type E. coli NCM3722, growth: P-lim chemostat, doubling time 12 h
[12] = E. coli NCM3722 delta-hslV, growth: N-lim chemostat, doubling time 6 h

Sequence | total protein half-life in vivo [1] [h] | total protein half-life in vivo [2] [h] | total protein half-life in vivo [3] [h] | total protein half-life in vivo [4] [h] | total protein half-life in vivo [5] [h] | total protein half-life in vivo [6] [h] | total protein half-life in vivo [7] [h] | total protein half-life in vivo [8] [h] | total protein half-life in vivo [9] [h] | total protein half-life in vivo [10] [h] | total protein half-life in vivo [11] [h] | total protein half-life in vivo [12] [h]
MERFDAIIIGAGAAGMFCSALAGQAGRRVLLIDNGKKPGRKILMSGGGRCNFTNLYVEPGAYLSQNPHFCKSALARFTQWDFIDLVNKHGIAWHEKTLGQLFCDDSAQQIVDMLVDECEKGNVTFRLRSEVLSVAKDETGFTLDLNGMTVGCEKLVIATGGLSMPGLGASPFGYKIAEQFGLNVLPTRAGLVPFTLHKPLLEELQVLAGVAVPSVITAENGTVFRENLLFTHRGLSGPAVLQISSYWQPGEFVSINLLPDVDLETFLNEQRNAHPNQSLKNTLAVHLPKRLVERLQQLGQIPDVSLKQLNVRDQQALISTLTDWRVQPNGTEGYRTAEVTLGGVDTNELSSRTMEARKVPGLYFIGEVMDVTGWLGGYNFQWAWSSAWACAQDLIAAKSS | 5.02 ± 0.28 | 5.67 ± 1.1 | 5.81 ± 0.69 | 4.72 ± 0.1 | 3.282 ± 0.019 | 6.42 ± 0.6 | 12.3 ± 1.9 | 5.15 ± 0.21 | 9.59 ± 0.85 | 5.88 ± 0.17 | 10.8 ± 1.7 | –
MERIVVTLGERSYPITIASGLFNEPASFLPLKSGEQVMLVTNETLAPLYLDKVRGVLEQAGVNVDSVILPDGEQYKSLAVLDTVFTALLQKPHGRDTTLVALGGGVVGDLTGFAAASYQRGVRFIQVPTTLLSQVDSSVGGKTAVNHPLGKNMIGAFYQPASVVVDLDCLKTLPPRELASGLAEVIKYGIILDGAFFNWLEENLDALLRLDGPAMAYCIRRCCELKAEVVAADERETGLRALLNLGHTFGHAIEAEMGYGNWLHGEAVAAGMVMAARTSERLGQFSSAETQRIITLLKRAGLPVNGPREMSAQAYLPHMLRDKKVLAGEMRLILPLAIGKSEVRSGVSHELVLNAIADCQSA | 4.67 ± 1.3 | 3.73 ± 0.43 | 3.72 ± 0.1 | 3.57 ± 0.046 | 2.77 ± 0.15 | 5.16 ± 0.2 | 8.87 ± 0.33 | 3.49 ± 0.091 | 5.447 ± 0.037 | 5.77 ± 0.57 | 10.6 ± 0.48 | 3.46 ± 0.2
MERNVTLDFVRGVAILGILLLNISAFGLPKAAYLNPAWYGAITPRDAWTWAFLDLIGQVKFLTLFALLFGAGLQMLLPRGRRWIQSRLTLLVLLGFIHGLLFWDGDILLAYGLVGLICWRLVRDAPSVKSLFNTGVMLYLVGLGVLLLLGLISDSQTSRAWTPDASAILYEKYWKLHGGVEAISNRADGVGNSLLALGAQYGWQLAGMMLIGAALMRSGWLKGQFSLRHYRRTGFVLVAIGVTINLPAIALQWQLDWAYRWCAFLLQMPRELSAPFQAIGYASLFYGFWPQLSRFKLVLAIACVGRMALTNYLLQTLICTTLFYHLGLFMHFDRLELLAFVIPVWLANILFSVIWLRYFRQGPVEWLWRQLTLRAAGPAISKTSR | – | 5.73 ± 0.069 | 6.13 ± 0.32 | 5.67 ± 0.66 | – | 6.471 ± 0.017 | 10.3 ± 1.2 | 6.72 ± 0.74 | 7.45 ± 4 | 5.19 ± 0.44 | 11.6 ± 0.22 | 5.75 ± 1.1
MESIEQQLTELRTTLRHHEYLYHVMDAPEIPDAEYDRLMRELRELETKHPELITPDSPTQRVGAAPLAAFSQIRHEVPMLSLDNVFDEESFLAFNKRVQDRLKNNEKVTWCCELKLDGLAVSILYENGVLVSAATRGDGTTGEDITSNVRTIRAIPLKLHGENIPARLEVRGEVFLPQAGFEKINEDARRTGGKVFANPRNAAAGSLRQLDPRITAKRPLTFFCYGVGVLEGGELPDTHLGRLLQFKKWGLPVSDRVTLCESAEEVLAFYHKVEEDRPTLGFDIDGVVIKVNSLAQQEQLGFVARAPRWAVAFKFPAQEQMTFVRDVEFQVGRTGAITPVARLEPVHVAGVLVSNATLHNADEIERLGLRIGDKVVIRRAGDVIPQVVNVVLSERPEDTREVVFPTHCPVCGSDVERVEGEAVARCTGGLICGAQRKESLKHFVSRRAMDVDGMGDKIIDQLVEKEYVHTPADLFKLTAGKLTGLERMGPKSAQNVVNALEKAKETTFARFLYALGIREVGEATAAGLAAYFGTLEALEAASIEELQKVPDVGIVVASHVHNFFAEESNRNVISELLAEGVHWPAPIVINAEEIDSPFAGKTVVLTGSLSQMSRDDAKARLVELGAKVAGSVSKKTDLVIAGEAAGSKLAKAQELGIEVIDEAEMLRLLGS | 6.33 ± 0.46 | 5.67 ± 0.88 | 5.11 ± 0.22 | 4.28 ± 0.047 | 2.8 ± 0.23 | 5.68 ± 1.1 | 9.65 ± 0.5 | 4.64 ± 0.15 | 8.04 ± 0.3 | 4.92 ± 0.57 | 8.66 ± 0.66 | 5 ± 0.61
MESIQPWIEKFIKQAQQQRSQSTKDYPTSYRNLRVKLSFGYGNFTSIPWFAFLGEGQEASNGIYPVILYYKDFDELVLAYGISDTNEPHAQWQFSSDIPKTIAEYFQATSGVYPKKYGQSYYACSQKVSQGIDYTRFASMLDNIINDYKLIFNSGKSVIPPMSKTESYCLEDALNDLFIPETTIETILKRLTIKKNIILQGPPGVGKTFVARRLAYLLTGEKAPQRVNMVQFHQSYSYEDFIQGYRPNGVGFRRKDGIFYNFCQQAKEQPEKKYIFIIDEINRANLSKVFGEVMMLMEHDKRGENWSVPLTYSENDEERFYVPENVYIIGLMNTADRSLAVVDYALRRRFSFIDIEPGFDTPQFRNFLLNKKAEPSFVESLCQKMNELNQEISKEATILGKGFRIGHSYFCCGLEDGTSPDTQWLNEIVMTDIAPLLEEYFFDDPYKQQKWTNKLLGDS | 5.77 ± 0.24 | 3.81 | – | 4 ± 0.19 | 3.13 ± 0.25 | 6.02 ± 2.1 | 8.15 ± 0.33 | 4.41 ± 0.59 | – | 5.12 ± 0.74 | 6.46 ± 0.81 | –
MESLNQFVNSLAPKLSHWRRDFHHYAESGWVEFRTATLVAEELHQLGYSLALGREVVNESSRMGLPDEFTLQREFERARQQGALAQWIAAFEGGFTGIVATLDTGRPGPVMAFRVDMDALDLSEEQDVSHRPYRDGFASCNAGMMHACGHDGHTAIGLGLAHTLKQFESGLHGVIKLIFQPAEEGTRGARAMVDAGVVDDVDYFTAVHIGTGVPAGTVVCGSDNFMATTKFDAHFTGTAAHAGAKPEDGHNALLAAAQATLALHAIAPHSEGASRVNVGVMQAGSGRNVVPASALLKVETRGASDVINQYVFDRAQQAIQGAATMYGVGVETRLMGAATASSPSPQWVAWLQSQAAQVAGVNQAIERVEAPAGSEDATLMMARVQQHQGQASYVVFGTQLAAGHHNEKFDFDEQVLAIAVETLARTALNFPWTRGI | 6.21 ± 1.1 | 2.65 ± 0.05 | 3.18 ± 0.22 | 2.86 ± 0.093 | 1.71 ± 0.65 | 5.22 | 5.67 ± 0.081 | 2.9 ± 0.053 | 4.45 ± 0.16 | 1.87 | 6.79 | 3.12 ± 0.28
